The nature of the assay: 14C assay with IPTG-induced recombinant E. coli cells (14CO2 capture from [14C]-carboxyl-labeled dicamba). The conditions noted are these: E. coli cell assay, 108 sequences tested.

These results are taken from US20140287419A1, “Compositions Having Dicamba Decarboxylase Activity and Methods of Use” (priority 2013, published 2014).

B1: SEQ ID NO:22: possible o-pyrocatechuate decarboxylase, Staphylococcus epidermidis M23864: W1 (protein, listed as Staphylococcus epidermidis)
chain: MAKSINFEEHYVVDDIQKETMKYMSSDPNGVPMQTMLKGLEQKSGFTNADDITKHDERIKFMDEHDVEMQVLSYGNGAPSNLEGERAIELCQQANDTLAKYVNEHPDRFVGFATLPINEPQAAVEEFKRCIKELGFKGALIMGHPKNGFLDQDQYDDLFATAEALNVPIYLHPSPVQSDVYQAYYKGNYSDVTAATFACFGYGWHVDVGIHAIHLVLSGVFDRHPNLNMIIGHWGEFVPFFLERMDDILFADHLEHPISYYFKNNFYITPSGMLTKPQFDLVKAEVGVDRILYSADYPYVEPDKLGTFLDELDLTEEEKEKISYKNGAKLLGLEK
In the case of B1, the “decarboxylation activity of dicamba” value is listed as “showed decarboxylation activity of dicamba”.

B2: SEQ ID NO:81: 2-amino-3-carboxymuconate-6-semialdehyde decarboxylase, Verticillium dahliae VdLs.17 (protein, listed as Verticillium dahliae)
chain: MAASTKPKVVDIHTHMYPPSYIDILTSRTAIPVVRTFPQAADPRLILLDAEQQALDAALQDPTAKPPGRPLTSHYASLDQKIHFMDTHSIDISVVSLANPWLDFIEPKEAAATARSVNDEFEAMCASQPGRLFFFAALPLTAPLPALLEAVRHVAELEHCRGVILGTSGLGSGLDDPELVPVLEAVAAAALTVFLHPHYGLPNDVWGPRASAEYGHVLPLALGFPMETTIAVARMYLAGVFDRVPALRMLLAHSGGTLPFLAGRIESCILHDGQLVAEGKVGAARRTIWDVLREQVYLDAVIYSEIGLKAAIAASGGADRLMFGTDHPFFPPLGTDEQAKKESRINAGGSRPMITGNAMINGHGGLCNHITQSDYQDVVL
As to B2, the “decarboxylation activity of dicamba” value is on record as “showed decarboxylation activity of dicamba”.

B3: SEQ ID NO:21: reversible 2,6-dihydroxybenzoic acid decarboxylase, Agrobacterium tumefaciens (protein, listed as Agrobacterium tumefaciens)
chain: MAQGKVALEEHFAIPETLQDSAGFVPGDYWKELQHRLLDIQDTRLKLMDAHGIETMILSLNAPAVQAIPDRKKAIEIARRANDVLAEECARRPDRFLAFAALPLQDPDAATQELQRCVNDLGFVGALVNGFSQEGDGQTPLYYDLPQYRPFWGEVEKLDVPFYLHPRNPLPQDSRIYDGHPWLLGPTWAFAQETAVHALRLMASGLFDAHPRLNIILGHMGEGLPYMMWRIDHRNAWVKLPPRYPAKRRFVDYFNENFHITTSGNFRTQTLIDAILEIGADRILFSTDWPFENIDHASDWFNATTIAEADRVKIGRTNARRLFKLDGR
Consider B3, for which the “decarboxylation activity of dicamba” value was “showed decarboxylation activity of dicamba”.

B4: SEQ ID NO:92: amidohydrolase 2, Chitinophaga pinensis DSM 2588 (protein, listed as Chitinophaga pinensis)
chain: MARIVTLEEHVSFPEMTALLPEEILKNRKQSGAALQMQEKLADITGERLTSMKAAGISMQVLSVENTDVYLLPDSLAPAFAAKYNDLLADKISSHSDAFAAFAMLPMTVPEAAADELERAVKTHGFCGAMIKGLINGVFLDAPKFAPVFACAEKLGVPLYIHPGIPPKEVIDAYYSNVGDTKGPNEAIACYGWGWHSETAIHILRLLAAGIFDKYPQLNIIIGHMGEMLPMMWERSNRVFQPGNNGKNQRTLIETFRKQLYITTSGIFTQPPLQIAIDTIGIDNILFSIDYPFSSNQMGIDFLTKAALPAEQLAKMAHGNADRILKF
B4: the “decarboxylation activity of dicamba” value is listed as “showed decarboxylation activity of dicamba”.

B5: SEQ ID NO:88: o-pyrocatechuate decarboxylase, Starkeya novella DSM 506 (protein, listed as Starkeya novella)
chain: MARKIALEEHFTTPELAGKYVARPTQSDALFADIERRLADFDELRLEMMDRAEIDLMVLSVTTPGVQGVRDTGEAIRLARGANDFLAREVQKRPSRYAGFAHLAMQDAEAAATELERAVRELGFRGALINGQTNGHYLDEDQYAPFWERVQELDVPVYLHPGNMADSPAMFAHRPELGGPIWAWTAETAAHALRLVFGGTFTRFPGAKVILGHMGETLPFLLWRLDSRREFDLGEKLAPDALPSAIIKRNIAVTTSGVCDPAPLVAALQALSDDNVMFSVDYPYEDPQLASKFIETAPIGEETRAKVCHGNAERLLGL
Regarding B5, the “decarboxylation activity of dicamba” value is “showed decarboxylation activity of dicamba”.

B6: SEQ ID NO:79: hypothetical protein PTT_18638, Pyrenophora teres f. teres 0-1 (protein)
chain: MATTTTPSTLIATLESHLTPTLAFTSPTTSPTQPALHLIPPTTLTKLRNLGPGRVKDMHMLGHSRQIISHIPVAAPPQICSRFNDAIHAATMTNTAKFSVLAVLPTDGMEAAKELARCVSKYRFVGGVIGLNRGLRINGEGWEELWGLAERLRIPIMFREMWPLAFEIVDYQHHLPYSALGPILTQLHTSHTSSPLPLVRLYLSSVFDHYPSLRLVLAHPGSLPSLVPRIESLINSIPATDKPKRSFLDVWQHNIYLTTADAQDMSSLRALLEQIPVDRVLYASNYPFEERGNELMNELRESEFLTNIEWERVAWVNAETLFNLKEAGTKEARQLTTIPSSRS
modifications: Pyrenophora teres
For the molecule B6, the “decarboxylation activity of dicamba” value is reported as “showed decarboxylation activity of dicamba”.

B7: SEQ ID NO:87: amidohydrolase, Novosphingobium sp. PP1Y (protein, listed as Novosphingobium sp.)
chain: MASDIATAADLQTGGRQGYLRIATEEAFATRDQIDVYLRMVRDGTADRGMTSLWGFYAQSPSARATQIIERLLDLGEQRLADMDAAGIDKAVLALTSPGVQPLLDMEEARRIAGNANDRLAERCAAHPDRFIGMTAVAPQDPQWSAREILRGATQLGFKGVQINSHTQGRYLDEPFFDPIFRALGDVGQPLYIHPGTPPDSMIGPLLDAGLDGAIYGFGVETGMHLLRLITAGIFDRYPDLQIMVGHMGEALPYWLYRLDYMHQAGIRSQRYERMRPLKRTIAGYFRSNVLVTCSGMAWEPAIQFARQVMGEDRVMYAMDYPYQYEADEVRALDVMDLSPESKRKFFQTNAERWFDL
As for B7, the “decarboxylation activity of dicamba” value is recorded as “showed decarboxylation activity of dicamba”.

B8: SEQ ID NO:4: o-pyrocatechuate decarboxylase, Lactobacillus buchneri NRRL B-30929 (protein, listed as Lactobacillus buchneri)
chain: MAKVITLEEHFSSQKLGQKMAEVLPKRPIGNVSPKMQDYMQRSLPPEAELEDVTGSRIQWMDQHQISMQILSYGNQNPQNSDPKFAVELTKLANDELAKAVAKAPDRFRAFASLPVSHPTDAAAELKRGVEELGFKGAMLVRPTSQAHPFFDDPFYLPIFEAAANLNVPVYLHPSFPDSQIIDYYYSNGPWDDKVSGILGTAGYGWHTDVGIQTVRLLLSGVFEKYPNLKLISGHWGEFASFALERMDQVMYPETNLSEPISKIYRDHVYVTPSGILTEPQLKFVKDEVGIEHLLYSIDYPYIKPENSGSFIESSPLTDEEKELFAHGNAEKLLQL
With B8, the “decarboxylation activity of dicamba” value was “showed decarboxylation activity of dicamba”.

B9: SEQ ID NO:5: possible o-pyrocatechuate decarboxylase, Staphylococcus aureus subsp. aureus MN8 (protein, listed as Staphylococcus aureus)
chain: MAQNNMEANQMKSITFEEHYVIEDIQKETMNAISADPKGVPMKVMLEGLEKKTGFTNADELSHHDERIQFMNNQDVQIQVLSYGNGSPSNLVGQKAIELCQKANDQLANYIAQYPNRFVGFATLPINEPEAAAREFERCINDLGFKGALIMGRAQDGFLDQDKYDIIFKTAENLGVPIYLHPAPVNSDIYQSYYKGNYPEVTAATFACFGYGWHIDVGIHAIHLVLSGIFDRYPKLNMIIGHWGEFIPFFLERMDEALFAEHLNHPVSYYFKNNFYITPSGMLTKPQFDLVKKEAGIDRILYAADYPYIEPEKLGVFLDELGLTDEEKEKISYTNGAKLLGLSSNN
For the molecule B9, the “decarboxylation activity of dicamba” value was “showed decarboxylation activity of dicamba”.

B10: SEQ ID NO:16: possible o-pyrocatechuate decarboxylase, Staphylococcus aureus subsp. aureus TCH60 (protein, listed as Staphylococcus aureus)
chain: MAQNNMEANQMKSITFEEHYVIEDIQKETMNAISADPKGVPMKVMLEGLEKKTGFTNADELSHHDERIQFMNNQDVQIQVLSYGNGSPSNLVGQKAIELCQKANDQLANYIAQYPNRFVGFATLPINEPETAAREFERCINDLGFKGALIMGRAQDGFLDQDKYDIIFKTAENLGVPIYLHPAPVNSDIYQSYYKGNYPEVTAATFACFGYGWHIDVGIHAIHLVLSGIFDRYPKLNMIIGHWGEFIPFFLERMDEALFAEHLNHPVSYYFKNNFYITPSGMLTKPQFDLVKKEAGIDRILYAADYPYIEPEKLGVFLDELGLTDEEKEKISYTNGAKLLGLSSNN
B10: the “decarboxylation activity of dicamba” value is “showed decarboxylation activity of dicamba”.

B11: SEQ ID NO:89: amidohydrolase, Erwinia billingiae Eb661 (protein, listed as Erwinia billingiae)
chain: MATNRRDFLKNATAVMAGSTVFAGSSHFASAAAVEPAAVQPPRRIIALEEHFMLPEFVGYLHETQQNLRNGLVDKVVTPLSDFGKGRLEIMDKNGVDFAVLSLSGPGVQAEPDRVKAVRLARYANDKLATEMQKNPRRYGGFAHLAMQDPLAAANELERCVKQLHMQGGMINGETDGLYLDDRRYDVFWERVEALNVPIYIHPGNPPDYPHMFAGHPEMWGPVWSWAVETCSHALRLIFSGTFDRYPGARVILGHMGETLPIQLWRLDSRYQIANQTFAIKHPPSWYAKKNITITTSGVCNDAALRCALDSMGSENVMFSIDYPFESTEIAVNWLKTANITEQERNAVAWGNATSILRLGA
In the case of B11, the “decarboxylation activity of dicamba” value is recorded as “showed decarboxylation activity of dicamba”.

B12: SEQ ID NO:19: 2,3-dihydroxybenzoic acid decarboxylase, putative, Talaromyces marneffei ATCC 18224 (protein, listed as Talaromyces marneffei)
chain: MATPIITLEEHYISSAIRDASETDHYAVFPSQIISKLNTLSTERLQDLDNGHVSLQVISHGPGAQPPYLCQAANDELASAISANPTRFAGFALLPIAEPQLAVQELERCITQHKFVGALIDNHTNGQFYDDQKFWPVFEKAQELDAPIYVHPSYPDEESGVAAHYRGNYDDRIAAALGAYGWGWHSDTALSILRLFAAGLFDTYPNIKIIIGHMGEMLPFQLERVIGIASRFGRSRGLREVWTQNIWVTTSGMFALAPLACLLQTMPIERVLYSVDYPFSANEKGFAFLEEIKKSGLIKEGEDWERFLYKNAQELLKVNV
On to B12, for which the “decarboxylation activity of dicamba” value is reported as “showed decarboxylation activity of dicamba”.
